Laboratory results: the supplement of paper PMC9170038

System: MS2 coat protein
Test: apparent KD of MS2 coat protein; designed switch direction (-1 OFF switch, 1 ON switch): -1; higher = weaker reporter binding
Outline: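 On Illumina chips, designed RNA switches with common flanks were made by stalled E. coli RNA polymerase. Titrations with SNAP-549-labelled MS2 coat protein, doubling from 0.7 or 1.5 nM to 3 µM, were done with no input, with 200 uM small-molecule ligand, or with an oligonucleotide input. Apparent KD is the median per design over clusters, from curve fits of normalised cluster fluorescence.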

[1] = input ligand: microRNA oligo, concentration not stated
[2] = Eterna round: R95, input ligand: microRNA oligo, concentration not stated

Sequence | apparent KD of MS2 coat protein (input ligand: FMN 200 uM) [nM] | apparent KD of MS2 coat protein (input ligand: none) [nM] | apparent KD of MS2 coat protein [1] [nM] | apparent KD of MS2 coat protein [2] [nM]
GCCUCACUUGAGGAUCACCCAAGUCAGGAUAUAUCACUAGCGUGGAAACCACGCUGGCAUAGAAGGGACAAAGA [Ergeeddi] (Eterna round: R97, puzzle: Exclusion 1) | 27.1 | 17.3 | – | –
GCCUCUCAUGUGAGGAUAUCCGGACUAUACAGACAGGAGAAGGCACAUGAGGAUCACCCAUGUCACGCACACUU [BmEX4 B.5] (Eterna round: R97, puzzle: Brourd's mod of Exclusion 4) | 27.1 | 189 | – | –
GCCUGCUGGCGAGGAUAUUCUGUGCGGUUCCGGCUCGUGUCUGUUACAUGAGGAUCACCCAUGUGGGAGAAGGUGUCUGUGGCC [Design 100] (Eterna round: R96, puzzle: Exclusion NG 2) | 12.5 | 14.7 | 10.1 | –
GCCUGUAGUGUGAGGAUAUGCUGCUCCAUAGAGCAGCAGAAGGCACAUGAGGAUCACCCAUGUGAUAACAGGCA (Eterna round: R97, puzzle: Brourd's mod of Exclusion 4) | 443 | 151 | – | –
GCCUUAUCCGUCAGGAUAUACAGCCGCUCCCUGUUGUAGAAGGGACAUGAGGAUCACCCAUGUACGUACCAUUG [alecazam6] (Eterna round: R97, puzzle: Brourd's mod of Exclusion 4) | 31.8 | 39.1 | – | –
GCGAGAUGAGGAUAUUAGUGGAAUGACAUGAGGAUCACCCAUGUUACGCAUGUCGAGCUUUGAGAAGGCAUUACGA [Eternabot (L2) Solution 75] (Eterna round: R97, puzzle: Exclusion 5) | 26.2 | 31.3 | – | –
GCGAGGUUAGGAUAUGCUGGCGUGGACUUGAGGAUCACCCAAGUGACUGCGGGCUAGGGCGCAGAAGGGACAAAAU [Usti] (Eterna round: R97, puzzle: Exclusion 5) | 45.1 | 45.6 | – | –
GCGCACCUACCAAAAGGUAGGACAACAUGAGGAUCACCCAUGUAGGAUAUCGAUUGCUUUGCAGUCGAGAAGGACAUGAUGCGC [JL ENG3 3.80 Mod 7] (Eterna round: R96, puzzle: Exclusion NG 3) | 111 | 34.7 | 25.9 | –
GCGCACCUACCAAAAGGUAGGCUAACAUGAGGAUCACCCAUGUAGGAUAUCGAUUGCUUUGCAGUCGAGAAGGACGUGAUGCGC [JL ENG3 3.80 Mod 19] (Eterna round: R96, puzzle: Exclusion NG 3) | 25.9 | 23.3 | 17.2 | –
GCGCACCUACCAAAAGGUAGGUCCACAUGAGGAUCACCCAUGUAGGAUAUCGAUUGCUUUGCAGUCGAGAAGGACGUGAUGCGC [JL ENG3 3.80 Mod 16] (Eterna round: R96, puzzle: Exclusion NG 3) | 51.6 | 32.3 | 27.3 | –
GCGCCAUCGUGAGAUGGCGUAACUACAUGAGGAUCACCCAUGUAGGAUAUCGAUUGCUUUGCAGUCGAGAAGGGCAAGGGAUAU [JL ENG3 3.87] (Eterna round: R96, puzzle: Exclusion NG 3) | 15.3 | 16.9 | 13.5 | –
GCGCCAUCGUGAGAUGGCGUAACUACAUGAGGAUCACCCAUGUAGGAUAUCGAUUGCUUUGCAGUCGAGAAGGGCGAGGGAUUU [JL ENG3 3.89] (Eterna round: R96, puzzle: Exclusion NG 3) | 18.1 | 17.6 | 13.2 | –
GCGCCAUCGUGAGAUGGCGUAAGUACAUGAGGAUCACCCAUGUAGGAUAUCGAUUGCUUUGCAGUCGAGAAGGGCGUGAUAAGU [JL ENG3 3.81] (Eterna round: R96, puzzle: Exclusion NG 3) | 97.3 | 76.9 | 64.1 | –
GCGCCAUCGUGAGAUGGCGUAAUUACAUGAGGAUCACCCAUGUAGGAUAUCGAUUGCUUUGCAGUCGAGAAGGGCAUGAUAAGU [JL ENG3 3.79] (Eterna round: R96, puzzle: Exclusion NG 3) | 49.6 | 43.3 | 34.6 | –
GCGCCAUCGUGAGAUGGCGUACCGACAUGAGGAUCACCCAUGUAGGAUAUCGAUUGCUUUGCAGUCGAGAAGGGCAUGAUAAGU [JL ENG3 3.77] (Eterna round: R96, puzzle: Exclusion NG 3) | 20.9 | 21.4 | 13.4 | –
GCGCGAAGCUAGGAUAUGGGAGCGUCUUCGCUCCCAGAAGGAGCCACAUGAGGAUCACCCAUGUGGUGAUCCUG [eternacac ex6r4 sub14] (Eterna round: R97, puzzle: Exclusion 6) | 17 | 16.5 | – | –
GCGGAAAACUUAGGAUAUCAGGGCUGUACAUGAGGAUCACCCAUGUGAUAGCUCUAACACGGUCCUGAGAAGGGAGAGCCCGGA [Biorenen] (Eterna round: R96, puzzle: Exclusion NG 2) | 109 | 73 | 49.7 | –

Sequence | apparent KD of MS2 coat protein (input ligand: FMN 200 uM) [nM] | apparent KD of MS2 coat protein (input ligand: none) [nM] | apparent KD of MS2 coat protein [1] [nM] | apparent KD of MS2 coat protein [2] [nM]
GCGGACAAGAUGGAGACAUCAGAGACAUGAGGAUCACCCAUGUAGGAUAUCGAUUCGAAACGAAUCGAGAAGGGCAUAGUCCGC [JL denovo 2] (Eterna round: R96, puzzle: Exclusion NG 3) | 16.8 | 19.2 | 13.3 | –
GCGGAGUAUGUAGGAUAUCGGUCAGUUUCUGAUCGAGAAGGACAUGAGGAUCACCCAUGUAAAUUCCUCGCUUUGUGAGGCCGC [JL ENG1 3.65] (Eterna round: R96, puzzle: Exclusion NG 1) | 21.6 | 17.1 | 12.8 | –
GCGGGCUUUUAGGUUCUUAACAUGAGGAUCACCCAUGUGCUCGUCUUGCCGGCCGGCGGGCCGCCGGCCGGGCUUGU (Eterna round: R97, puzzle: Sensor, turn-off variant 1) | 66.4 | 68.2 | – | –
GCGUACUGAGGAUAUACAUGAGGAUCACCCAUGUGACACAGCAUUUAUUGAUAAAUUUGUAGAAGGCAGUAGGC [JR_Ex3_Sub059] (Eterna round: R97, puzzle: Exclusion 3) | 144 | 25 | – | –
GCGUACUGAGGAUAUACAUGAGGAUCACCCAUGUGACUAAGAUUUUAGUGAUGAUUUUGUAGAAGGCAGUAUGC [JR_Ex3_Sub061] (Eterna round: R97, puzzle: Exclusion 3) | 344 | 91.4 | – | –
GCGUAUGAGCAGGAUAUCCGACGGGAAUCCAAAGGAGAAGGGCUCACAUGAGGAUCACCCAUGUGGUCCUAAAC [Vequat] (puzzle: Exclusion 6) | – | – | – | 19.4
GCGUCGAGUGUGAGGAUAUGCUGGUCCUUGGAUCAGCAGAAGGCACAUGAGGAUCACCCAUGUGAAUACGAUGC [JL bmx4 3.14] (puzzle: Brourd's mod of Exclusion 4) | – | – | – | 21.2
GCUAGAGCAGGAUAUUUAAAUCCUCACAUGAGGAUCACCCAUGUAGUCGAAAGACUAAGAAGAGAAGGGCUCUAGC [Omei Ex5 E20] (Eterna round: R97, puzzle: Exclusion 5) | 951 | 230 | – | –
GCUAGAGCAGGAUAUUUAGAUCCUCACAUGAGGAUCACCCAUGUGGCCGAAAGGCUAAGAAGAGAAGGGCUCUAGC [Omei Ex5 E22] (Eterna round: R97, puzzle: Exclusion 5) | 199 | 789 | – | –
GCUAGGAAUGUCAGGAUAUGCUGUUCCUUGGAACAGCAGAAGGGACAUGAGGAUCACCCAUGUGCUAACCUAGC [Mat - Exclusion 4 - JL Mod - D5] (Eterna round: R97, puzzle: Brourd's mod of Exclusion 4) | 99.2 | 24.4 | – | –
GCUCGCGGGCAAGGAUAUCCCACGCUGUUCUGGCCCGUGUCUGUUACAUGAGGAUCACCCAUGUGGGAGAAGGUGCACCAGGGC [Design 45] (Eterna round: R96, puzzle: Exclusion NG 2) | 115 | 44.1 | 26.8 | –
GCUCUGUGAGGAUAUAUAACGCAUUGGAUAGUGAAACUUAGACAUGAGGAUCACCCAUGUAGAAGGUACGGUAG [Eternabot (L2) Solution 76] (Eterna round: R97, puzzle: Exclusion 2) | 77.8 | 99 | – | –
GCUGAUCGGCUAGGAUAUACAUUGAUCCUAGGAGGCUAAGCCUCAAAGACAUGAGGAUCACCCAUGUAGAAGGAGCAGCAGUAA [Armaonve] (Eterna round: R96, puzzle: Exclusion NG 2) | 103 | 39.4 | 23.3 | –
GCUGCAAAUGUAGGAUAUCUGCACGAUUAGUGCAGAGAAGGACAUGAGGAUCACCCAUGUAGAUCAGCAGCAAUUAAUUUAAUU [ENG1/5-A1] (Eterna round: R96, puzzle: Exclusion NG 1) | 413 | 41.5 | 42.1 | –
GCUGCGCGAGGAUAUGCGGUUCGCGCUGUGGCCCGUGGCGCACAUGAGGAUCACCCAUGUAGAAGGCGUGCGGG [Apr-15 SS2-57] (puzzle: Exclusion 2) | – | – | – | 9.52
GCUGGAAGAGGAUAUACAUAACGUGCGUCAGCACGAGGCCUACAUGAGGAUCACCCAUGUAGAAGGCUUCCAGC [EX2 #77] (Eterna round: R97, puzzle: Exclusion 2) | 27.9 | 15.5 | – | –
GCUGGACGAGGAUAUGCAAUCGUGCUUCGGCACGUAAGGUCACAUGAGGAUCACCCAUGUAGAAGGUGUCCAGC [E2/4-B2] (Eterna round: R97, puzzle: Exclusion 2) | 31.1 | 20.5 | – | –
